# B1: Islet amyloid polypeptide (Homo sapiens), P10997 (parent)
# chain: MGILKLQVFLIVLSVALNHLKATPIESHQVEKRKCNTATCATQRLANFLVHSSNNFGAILSSTNVGSNTYGKRNAVEVLKREPLNYLPL
# Variants of: B1
# Conditions: with bace1_human BACE1, P56817
# Chain of bace1_human BACE1, P56817 (P56817 whole entry): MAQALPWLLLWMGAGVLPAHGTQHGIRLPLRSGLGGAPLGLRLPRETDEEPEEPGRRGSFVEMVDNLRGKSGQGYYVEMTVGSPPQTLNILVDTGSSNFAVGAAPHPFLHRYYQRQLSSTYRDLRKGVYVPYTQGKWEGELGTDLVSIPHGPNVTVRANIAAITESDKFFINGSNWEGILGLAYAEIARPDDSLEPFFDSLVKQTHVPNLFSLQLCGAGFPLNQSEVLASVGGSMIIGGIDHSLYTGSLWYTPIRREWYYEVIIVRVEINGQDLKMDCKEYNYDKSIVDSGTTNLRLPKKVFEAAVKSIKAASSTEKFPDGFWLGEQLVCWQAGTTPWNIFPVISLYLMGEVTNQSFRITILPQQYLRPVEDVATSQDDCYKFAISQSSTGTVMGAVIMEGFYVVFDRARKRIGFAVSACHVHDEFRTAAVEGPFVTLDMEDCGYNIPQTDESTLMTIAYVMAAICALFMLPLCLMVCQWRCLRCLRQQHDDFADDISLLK
row,Variant,effect of a mutation on the interaction
1,F56K,with no effect
